Test results from the RNAGym collection of RNA variant scans (doi:10.1073/pnas.2313332121).

B1: TPR t1 (parent)
chain: GACCAAUCUGCCCUCAGAGCUCGAGAACAUCUUCGGAUGCAGAGGAGGCAGGCUUCGGUGGCGCGAUAGCGCCAACGUCCUCAACCUCCAAUGCAUCCCACCACAUGAUGAUGCCUGAAGAGCCUUGGUUUUUUG

Variants of: B1
Test: polymerase ribozyme fitness, log enrichment relative to wild type (log ratio); higher = more active; in vitro selection for triplet polymerase activity
Summary of the method: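 Only genotypes with ≥10 input reads and ≥1 read per output were kept after Illumina sequencing of input and output libraries. These libraries were PCR-built, transcribed mutants of each subunit of a heterodimeric triplet polymerase ribozyme, each put through one triplicate in vitro selection round with frozen incubation at −7 °C, gel excision of extended constructs, streptavidin-bead capture and RT-PCR. Fitness is a logarithmic ratio of genotype enrichment to wild-type enrichment, from inverse-variance-weighted replicate averages, with the logarithm in base 2.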

Row | Variant | polymerase ribozyme fitness (log ratio)
1 | GACCAAUCUGCCCUCAGAGCUCGAGAACAUCUUCGUAUGCAGAGGAGGCAGGCUUCGUAGGCGCGAUAGCGCCAACGUCCUCAACCUCCACUGCAUCCCACCACAUGAUGAAGCCUGAAGAGCCUUGGUUUUUUG | -2.22
2 | GACCAAUCUGCCCUCAGAGCUCGAGAACAUCUUCGUAUGCAGAGGAGGCAAGCUUCGGUUGCGCGAUAGCGCCAACGUCCUCAACCUCCAAUGCAUCCCACCACAUGAUGACGCCUGAAGAGUCUUGGUUUUUUG | -1.16
3 | GACCAAUCUGCCCUCAGAGCUCGAGAACAUCUUCGUAUGCAGAGUAUGCAGGCUUCGGUGGCGCGAUAGCGCCAACGUCCUCAACCUCCAAUGCAUCCCAUCAAAUGAUGAUGCCUGAAGAGGCCUGGUUUUUUG | -5.24
4 | GACCAAUCUGCCCUCAGAGCUCGAGAACAUCUUCGUAUGCAGAAGAAUCAGGCUUCGGUGGCGCGAUAUCGCCAACGUCCUGAACCUCCAAUGCAUCCCACCACAUGAUGAUGCCUGAAGCGCCUUGGUUUUUUG | 0.343
5 | GACCAAUCUGCCCUCAGAGCUCGAGAACAUCUUCGUAUGCAGAGGAGGCAGGCUUCGCUGGCGCGAUAGCGCCAACGUCCUCAACCUCAACUGCAUCCCACCACAUGAUGAUGCUUGAAGAGCCUUGGUUUUUUG | -4.15
6 | GACCAAUCUGCCCUCAGAGCUCGAGAACAUCUUCGUAUGCAGAAGAGGCAGGCUUCGGAAGCGCGAUAGCGCCAACCUCCUCAACCUCCAAUGCAUCCCACCACAUGAUGACGCCUGAAGAGCCUUGGUUUUUUG | 0.0936
7 | GACCAAUCUGCCCUCAGAGCUCGAGAACAUCUUCGUAUGCAGAGGAGUCAGGCUUCGGUGGCGCGAUAGCGCCAACGUCCUCAACCUCCAAUGCAUCCCACCACAUGAUGAUGCCUGAAGAGCCUUGGUUUAUUC | -1.44
8 | GACCAAUCUGCCCUCAGAGCUCGAGAACAUCUUCGUAUGCAGAAGAAUCAGGCUUCGGUGGCGCGAUAGCGCCAACGUCCUGAACCUCCAAUGCAUCCCACCACAUGAUGAUGCCUGAAGCGCCUUGGUUUUUUG | -0.473
9 | GACCAAUCUGCCCUCAGAGCUCGAGAACAUCUUCGUAUGCAGAUGAGGCAGGCUUCGGUGGCGCGAUAGCGCCAACGUCCUCAACCUCCAAUGCAUCCCACCACAUGAUGAUGCCUGAAGAGCCUUGGUUUUUUG | -2.24
10 | GACCAAUCUGCCCUCAGAGCUCGAGAACAUCUUCGUAUGCAGAUGAGGCAGGCUUCGGUGGCGCGAUAGCGCCAACGUCCUCAACCUCCAAUGCAUCCCACCACAUGAUGAGGCCUGAAGAGCCUUGGUUUUUUG | -4.18
11 | GACCAAUCUGCCCUCAGAGCUCGAGAACAUCUUCGUAUGCAGAAGAGGCAGGCUUCGGUGGCGCGAUAGCGCCAACGUCCUCAACCUCCAAUGCAUCCCACCAAAUGAUGAUGCCUGAAGAGCCUUGGUUUUUUG | -4.47
12 | GACCAAUCUGCCCUCAGAGCUCGAGAACAUCUUCGUAUGCAGAGGAAGCAGGCUUCGGUGGCGCGAUAGCGCCAACGUUCUCAACCUCCAAUGCAUCCCACCACAUGAUGAUGCCUGAAGAGCCUUGGUUUUUUG | -2.47
13 | GACCAAUCUGCCCUCAGAGCUCGAGAACAUCUUCGUAUGCAUAGGAGGCAGGCUUCGGUGGCGCGAUAGCGCCAACGUCCUCAACCUCCAAUGCAUCCAACCACAUGAUGAUGACUGAAGAGCCUUGGUUUUUUG | -7.29
14 | GACCAAUCUGCCCUCAGAGCUCGAGAACAUCUUCGUAUGCAGAGGAGGCAGGCUUCGGUGGCGCGAUAGCGCCAACGUCCUCAACCUCCAAUGCAUCCCACCACAUGAUGAUGCCUGAAGAGGCUUGGUUGUUUG | 0.0423
15 | GACCAAUCUGCCCUCAGAGCUCGAGAACAUCUUCGUAUGCAGAGGAGACAGGCUUCGGUGGCGCGAUAGCGUCAACGUCCUCAACCUCCAAUGCAUCCCACCACAUGAUGAUGCCUGAAGAGCCUUGGUUUUUUG | -1.42
16 | GACCAAUCUGCCCUCAGAGCUCGAGAACAUCUUCGUAUGCAAAGGAGGCAGGCUUCGGUGGCGCGAUAGCGCCAACGUCCUCAACCUCCAAUGCAUCCCACCACAUGAUGAUGCCUGAAGAGCCUUGGUUUUUUG | -3.47
17 | GACCAAUCUGCCCUCAGAGCUCGAGAACAUCUUCGUAUGCACAGGAGGCAGGCUUCGGUGGCGCGAUAGCGCCAACGUCCUCAACCUCCAAUGCAUCCCACCACAUGAUGAUGCCUGAAGAGCCUUGGUUUUUUG | -2.93
18 | GACCAAUCUGCCCUCAGAGCUCGAGAACAUCUUCGUAUGCAGAGGAUGCAGGCUUCGGAGGCGCGAUAGCGCCAACGUCCUCAACCUCCAAUGCAUCCCACCACAUGAUGAUGCCUCAAGAGCCUUGGUUUUUUG | -6.9
19 | GACCAAUCUGCCCUCAGAGCUCGAGAACAUCUUCGUAUGCAGAGGAUGCAGGCUUCGGUGACGCGAUAGCGCCAACGUCCUCAACCUCCAAUGCAUCCCACCACAUGAUGAUGCCUGAAGAGCCUUGGUUUUUUG | -4.11
20 | GACCAAUCUGCCCUCAGAGCUCGAGAACAUCUUCGUAUCCAGAGGAGGCAGGCUUCGGUGGCGCGAUAGCGCCAACGUCCUCAACCUCCAAUGCAUCCCACCACAUGAUGAUGCCUGAAGAGCCUUGGUUUUUUG | -1.56
21 | GACCAAUCUGCCCUCAGAGCUCGAGAACAUCUUCGUAUGCAGAUGAGGCAGGCUUCGGUGGCGCGAUAGCGCCAGCGUCCUCAACCUCCAAUGCAUCCCACCACAUGAUGACGCCUGAAGAGCCUUGGUUGUUUG | -1.21
